Measured values reported in US20190248902A1 (published 2019).
Substitutions are numbered along the chain they refer to. One block for each binder: values may come before it.

Tests used:
[1] = molecular target: T1, soluble human ASGR-1 carbohydrate binding domain (CBD; amino acid residues 154-281; N-terminal 6xHis tag) (human, UniProt P07306 154-281); assay: Octet BLI, mAb on AR2G tips, 1:1 fit
T1 construct: also called ASGR-1 CBD
T1 sequence: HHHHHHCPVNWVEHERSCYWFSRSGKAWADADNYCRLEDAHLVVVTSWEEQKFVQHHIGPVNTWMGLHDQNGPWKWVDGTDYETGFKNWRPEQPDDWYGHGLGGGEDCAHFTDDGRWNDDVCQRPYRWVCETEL
Source text: To quantitate the binding affinity of specific antibodies for ASGR-1 (either purified from hybridoma supernatants or made recombinantly), association and dissociation rates can be measured using a ForteBio Octet instrument. […] Experimental kinetic results were globally fit to a 1:1 binding model in order to determine the association and dissociation rate constants as well as the equilibrium dissociation constant. Association and dissociation times were chosen to ensure that curvature was present during association curves and measured dissociation levels dropped at least 5% from starting levels. All Octet buffers contained 10 mM Tris (pH7.5), 150 mM NaCl, 1 mM CaCl₂), 0.10 mg/ml BSA and 0.13% Triton X-100. Octet assays were run at 27° C. Because this assay only measures binding to the ASGR-1 CBD, antibodies that recognize epitopes partially or entirely outside the CBD and/or recognize ASGR-1 in the context of a native ASGR complex, for example, as could occur on cell membranes, may not score as positive in this assay.

[2] = molecular target: T2, human ASGR-1 (wild type) (human, UniProt P07306 1-291); assay: FACS, transfected CHO-S cells, mAb 5 ug/ml
T2 construct: also called wt ASGR1; huASGR-1
T2 sequence: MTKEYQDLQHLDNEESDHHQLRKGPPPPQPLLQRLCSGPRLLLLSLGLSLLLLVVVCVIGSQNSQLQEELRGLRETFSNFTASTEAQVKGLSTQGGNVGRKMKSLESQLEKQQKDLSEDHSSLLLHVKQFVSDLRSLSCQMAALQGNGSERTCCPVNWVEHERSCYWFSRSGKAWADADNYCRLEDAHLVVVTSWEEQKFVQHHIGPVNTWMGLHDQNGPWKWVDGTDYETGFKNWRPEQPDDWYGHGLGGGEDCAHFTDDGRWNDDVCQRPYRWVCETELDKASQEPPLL
In short: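 Transiently transfected CHO-S cells expressing wild-type or mutant hASGR-1 incubated with antibody at 5 ug/ml, 1 h at 4 °C; bound antibody detected by Alexa Fluor 647 anti-Fc plus 7-AAD, by flow cytometry. Binding normalized to expression using an unaffected antibody (65C12), then to wild type; hits defined as >3× IQR above third quartile.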

B1: 176H4 (antibody, V domains shown)
VH: QVQLVESGGGVVQPGRSLRLSCAASGFTFSSYGMHWVRQAPGKGLEWVAIIWYDGSYKYYADSVKGRFTISRDNSKNTLYLQMSSLRAEDTAVYYCARDAHDFWSGYFAYWGQGALVTVSS
VL: DIVMTQTPLSLSVTPGQPASISCKSSQSLLHGDGKTYLYWYLQKPGQPPQLLIYEVSNRFSGVPDRFSGSGSGTDFTLKISRVEAEDVGIYYCMQSIQIPWTFGQGTRVEIK
notes: mAb
- Kd [1]: 800 pM
- FACS Binding Geomean [2]: 33500

B2: 75G3 (antibody, V domains shown)
VH: QVQLQQWGAGLLKPSETLSLTCAVYGGSLSGSYWSWIRQPPGKGLEWIGEINLSGSTNYNPSLKSRVTISVDTSKSQFSLTLRSVTAADTAVYYCARDYGGLDYWGQGTLVTVSS
VL: EIVLTQSPGTLSLSPGERATLSCRARQNVDSSYLAWYQQKPGQAPRLLIYGASSRATGIPDRFSGSGSGTDFTLTISRLEPEDFAVFYCQQYERSPWTFGQGTKVEIK
notes: mAb
- Kd [1]: 1000 pM
- FACS Binding Geomean [2]: 37200

B5: 194A4 (antibody, V domains shown)
VH: QVQLVQSGTEVKKPGASLKVSCKASGYTFTVYYLNWVRQAPGQGLEWMGWINPNSGGTNYAQKFQGRVTMTRDTSISTAYMELSRLRSDDTAVYYCARGYDILTGWGQGTLVTVSS
VL: EIVLTQSPGTLSLSPGERATLSCRASRGVSNIYLAWYQQKPGQAPRLLIYGASNRATGIPDRFSGSGSGTDFTLTISRLEPEDFAVYYCQHNDYSMFTFGPGTKVDIK
notes: mAb
- Kd [1]: 700 pM
- FACS Binding Geomean [2]: 16300

B6: 190F8 (antibody, V domains shown)
VH: QVQLVESGGGVVQPGRSLRLSCAASGFTFSTYGMHWVRQAPGKGLEWVAVIWYDGSNKNYADSVKGRFTISRDNSKNTLYLQMNSLRAEDTAVYYCARDQGVGYDGLDVWGQGTTVTVSS
VL: DIQMTQSPSSLSASVGDRVTITCRTSQGIGNYLAWFQQKPGKAPKSLLYKASSLQSGVPSKFSGSGSGTDFTLTISSLQPEDFATYYCQQYMTYPLTFGGGTKVEIK
notes: mAb
- Kd [1]: 600 pM
- FACS Binding Geomean [2]: 36500

B9: 191G10 (antibody, V domains shown)
VH: B6 VH with T31S
VL: B6 VL with N31K, A51V
notes: mAb
- Kd [1]: 500 pM
- FACS Binding Geomean [2]: 33800

B11: 191G1 (antibody, V domains shown)
VH: B6 VH with T31S, K58E, N59H, Q100R, D105Y
VL: B6 VL with T25A, G30S, L48I, K50A, Q90H, M92L
notes: mAb
- Kd [1]: 2400 pM
- FACS Binding Geomean [2]: 25300

B12: 193E7 (antibody, V domains shown)
VH: QVQLQQWGAGLLKPSETLSLTCAVYGGSFSGYFWTWIRQPPGKGLEWIGEINHSGSTNYNPSLKSRVTISVDTSKNQFSLKLSSVTAADTAVYYCARDYGADYWGQGTLVAVSA
VL: DIQMTQSPSSLSASVGDRVTITCRASQGIRNDLGWYQQKPGKAPKRLIYSASSLQRGVPSRFSGSGSGTEFTLTISSLQPEDFATYYCLQHKRYPLTFGGGTKVEIK
notes: mAb
- Kd [1]: 3500 pM
- FACS Binding Geomean [2]: 35500

B13: 72G9 (antibody, V domains shown)
VH: EVQLVESGGGLVKPGGSLRLSCAASGFTFSSYSMNWVRQAPGKGLEWVSSISGSSSYIYYADSVKGRFTISRDNAKNSLYLQMNSLRAEDTAVYFCARGGSRGFDPWGQGTLVTVSS
VL: DIQMTQSPSSLSASVGDRVTITCRASQSITSYLNWYQQKPGKAPKLLIYTASSLQSGVPSRFSGSGSGTDFTLTISSLQPEDFATYYCQQSHSFPFTFGPGTKVDIK
notes: mAb
- Kd [1]: 500 pM
- FACS Binding Geomean [2]: 36500

Now from value to binder:

- Kd [1]: 2600 pM
- FACS Binding Geomean [2]: 12200
B3: 218G4 (antibody, V domains shown)
VH: QVQLVESGGGVVQPGRSLRLSCAASGFTFSSYGLHWVRQAPGKGLEWVAVIWYDGSNKYYADSVKGRFTISRDNSKNTLYLQMNSLRVEDTAVYYCANWYYYYYGMDVWGQGTTVTVSS
VL: QSVLTQPPSVSAAPGQKVTISCSGSSSNIGNNYVSWYQQLPGTAPKLLLYDSNKRPSGIPARFSGSKSGTSATLGITGLQTGDEADYYCGTWDSSLNTVVFGGGTKLTVL
notes: mAb

- Kd [1]: 4000 pM
- FACS Binding Geomean [2]: 28100
B4: 194C10 (antibody, V domains shown)
VH: QVQLQQWGAGLLKPSETLSLTCAVSGGSFRYYYWSWIRQPPGKGLEWFGEINHSGSTNYNPSLKSRVTISIDTSKNQFSLKLRSVTAADTAVYYCARDYGAFDIWGQGTMVTVSS
VL: EIVLTQSPGTLSLSPGERATLSCRASPSVNSGYLAWYQQKPGQTPRLLIFGASSRATGIPDRFSASGSGADFTLTISRLEPEDFAVYFCQQYESSPWTFGQGTKVEIK
notes: mAb

- Kd [1]: 800 pM
- FACS Binding Geomean [2]: 13300
B7: 197G3 (antibody, V domains shown)
VH: B6 VH with A23V, T31S, Y32H, Q100P, G101S, L107M
VL: DIQMTQSPSSLSASVGDRVTITCRASQGIGNHLAWFQQKPGKAPKSLIYAASSLQSGVPSKFSGSRSGTDFSLTISSLQPEDFATYYCQQYSNYPVTFGPGTKVDIK
notes: mAb

- Kd [1]: 1300 pM
- FACS Binding Geomean [2]: 20900
B8: 194C1 (antibody, V domains shown)
VH: B6 VH with T31S, K58E, N59H, D99N, Q100R, D105Y
VL: B6 VL with T25A, G30S, L48I, K50A, Q89L, Q90H, M92L
notes: mAb

- Kd [1]: 40 pM
- FACS Binding Geomean [2]: 21500
B10: 198G3 (antibody, V domains shown)
VH: B6 VH with R19K, S56T, Y80C
VL: B6 VL with T5A, N31K, S56G
notes: mAb
